We go through two molecules from patent US20150191541A1 (NEOTOPE BIOSCIENCES, published 2015).

For assay [1], the target named is T1, human islet-amyloid polypeptide (IAPP) (human).
T1 construct: also called hIAPP; amylin
T1 peptide: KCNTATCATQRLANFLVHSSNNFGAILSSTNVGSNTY
Nature of the assay: ELISA screen of hybridomas on IAPP.

For assay [2], the target named is T2, peptide of amino acid residues 1-10 of IAPP (human, disulfide 2-7).
T2 construct: also called IAPP 1-10
T2 peptide: KCNTATCATQ
The assay can be described thus: epitope mapping.

For the next assay, the target named is T3, rat IAPP (rat, UniProt P12969 38-74).
T3 construct: also called rat islet-amyloid polypeptide
T3 peptide (looked up): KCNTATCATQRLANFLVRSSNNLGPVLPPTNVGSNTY
The assay can be described thus: Biacore SPR, antibody captured on anti-human CM5 chip, rat IAPP as analyte. On the procedure:
The affinity of various combinations of 8A9 humanized heavy chains and humanized light chain proteins for hIAPP was analyzed on a Biacore instrument. Biacore analysis was performed by preparing an anti-human CM5 chip following the protocol provided in the kit. The 8A9 antibody was captured such that the maximum binding of rat IAPP would not exceed 20-30 RU. […] Data was blank subtracted to both an irrelevant sensor not containing 8A9 and 0 IAPP concentration to account for the dissociation of 8A9 from the anti-human capture. Data was then analyzed using a global 1:1 fit.

Positions of bridges follow the written chain, without caps; N, C: chain ends. No end group written: not given here.

B1: murine 8A9 antibody (antibody, V domains shown)
VH: QVQLKESGPGLVAPSQSLSITCTVSGFSLTNYAVHWVRQPPGKGLEWLGVIWSGGNTNYNSALMSRLRISKDNSQSQVFLKMNSLQTDDTGMYYCARDRGYYGGIYGFANWGQGTLVTVSS
VL: DIQMTQSPSSLSASLGKRVSLTCRASQEISGYLSWLQQKPDGTIKRLIYAASTSDSGVPKRFSGSRSGSDYSLTISSVESEDFADYYCLQYADYPYTFGGGTKLEIK
notes: Mouse hybridoma antibody; also called m8A9; mouse 8A9 antibody
With B1, the binding result in assay [1] and in assay [2] was “binds” throughout.

B2: humanized 8A9 antibody version H7L3 (antibody, V domains shown)
VH: QVQLQQSGPGLVKPSQSLSLTCTVSGFSLTNYAVHWVRQPPGKGLEWLGVIWSGGNTNYNSALMSRLTISKDNSQNQVFLKLNSLTTADTGVYYCARDRGYYGGIYGFANWGQGTLVTVSS
VL: DIQMTQSPSSLSASVGDRVTITCRASQEISGYLSWLQQKPGKAIKRLIYAASTSDSGVPSRFSGSRSGSDYTLTISSLQPEDFADYYCLQYADYPYTFGGGTKVEIK
notes: also called H8A9-H7L3
Take B2: the “fold difference of affinity against murine 8A9” value with rat IAPP is less than 2 fold.
